Assay results published in patent US20060275758A1, “Use of pp2a phosphatase modulators in the treatment of mental disorders” (priority 2002, published 2006).

Key:
GSK-3β = assay: In vitro phosphorylation assay of GST-2E11 (KCNQ2-15b fusion protein) with recombinant GSK-3β kinase and PKA; assay type: biochemical; settings: LiCl added to the kination mix (0, 8.3, 25, 75, 225 mM); autoradiography band at about 45 kD; read-out: LiCl concentration at which the phosphorylation state of GST-2E11 was reduced by 50%
Method: Expression and purification of the GST-2E11 fusion protein were performed as described above. Beads with bound fusion protein corresponding to 1 ml of bacterial clear lysate were washed three times in NETN and one time with HMK buffer without DTT (20 mM Tris-HCl [pH 7.5], 120 mM NaCl, 12 mM MgCl2). Beads were resuspended in 240 μl of reaction mix (24 μl of 10× HMK Buffer with 20 mM DTT, 40 units of Protein Kinase A Catalytic Subunit [PKA from bovine heart, 250 units/vial, Sigma] in 40 mM DTT, 5 μl of 24 mM ATP and 207 μl of distilled water) and incubated for 30 min at room temperature. Beads were then washed three times in NETN buffer and one time in GSK -3β reaction buffer (20 mM Tris-HCl [pH 7.5], 10 mM MgCl2, 5 mM DTT) (New England Biolabs). Beads were then resuspended in 50 μl of reaction mix (5 μl of 10× GSK-3β reaction buffer, 1 μl of [^32P]γATP 10 mCi/ml, 50 U of recombinant GSK-3β[New England Biolabs], and distilled water for a final volume of 50 μl) and incubated at room temperature for 30 min. After three washes in NETN buffer, phosphorylated proteins were boiled in 2× Sample Buffer (125 mM Tris-HCl [pH 6.8], 4% SDS, 20% glycerol, 1.4 M β-Mercapto ethanol), resolved by 10% SDS-PAGE, and visualized by autoradiography.
In this phosphorylation assay, non-radiolabeled polypeptides to be tested are incubated in the presence of GSK-3β, PKA and radioactive ATP. […]

PP2A phosphatase = assay: In vitro dephosphorylation of phosphorylated GST-2E11 with HTB-14 whole cell extracts; assay type: biochemical, Human; settings: HTB-14 cell extracts (500 μg) plus 400 μM okadaic acid, 30 min, room temperature
Method: In vitro phosphorylated GST-2E11 fusion protein was incubated at room temperature for 30 min with 500 μg of whole cell extracts of Human glioblastoma, astrocytoma cell line (ATCC number: HTB-14) with or without 400 μM of the PP2A phosphatase inhibitor okadaic acid (Sigma). HTB-14 whole cell extracts were prepared as follow: cells were washed three times with ice-cold TBS buffer (10 mM Tris-HCl [pH 8.0], 120 mM NaCl) and lysed at 4° C. for 30 min in EBC buffer (50 mM Tris-HCl [pH 8.0], 120 mM NaCl, 0.5% Nonidet P-40). Then the lysate was centrifugated for 10 min at 13.000×g at 4° C. to pellet cell debris. Proteins present in the supernatant were quantified by the standard Bradford's method (Bio-Rad Protein Assay). The proteins were then resolved by 10% SDS-PAGE, and visualized by autoradiography.
The phosphorylated radiolabeled GST-2E11 proteins obtained from the previous assay were incubated in the presence of HTB-14 cell extracts containing the PP2A phosphatase to determine whether PP2A is capable of dephosphorylating GST-2E11 proteins. In this experiment, a protein that is dephosphorylated by PP2A is not radioactive after incubation in the presence of HTB-14 cell extracts any more. Thus dephosphorylation of the GST-2E11 protein is monitored by disappearance of the signal visualized by autoradiography. […]

[1] = system: GST-2E11 recombinant protein
GST recombinant protein = biological target: T1, GST recombinant protein (UniProt P08515 1-218 = GST); assay: solid phase overlay assay: GST blotted on nitrocellulose, probed with 32P-labeled GST-PPP2R2C, autoradiography
T1 construct: Negative control in the overlay assay; also called Glutathione S-transferase; pGEX2TK plasmid product
Method: After 4.5 hr of incubation, the membrane was washed with Hyb75 buffer, 1 mM DTT, 1% (w/v) non-fat dry milk three times for 15 min at room temperature. The blots were analyzed by autoradiography.

| Molecule | phosphorylation of GST-2E11 with 5 µg of CREB phosphopeptides added as competitor [1] | phosphorylation with [32P]γATP, band at about 45 kD by autoradiography [1] | further results |
| --- | --- | --- | --- |
| [Cl-].[Li+] [LiCl] | – | – | IC50 (GSK-3β): ~50 mM |
| C=C1[C@@H](O)[C@@H]2O[C@]3(CC[C@H](/C=C/[C@@H](C)[C@@H]4CC(C)=C[C@@]5(O[C@H](C[C@@](C)(O)C(=O)O)CC[C@H]5O)O4)O3)CC[C@H]2O[C@@H]1[C@@H](O)C[C@H](C)[C@H]1O[C@@]2(CCCCO2)CC[C@H]1C [okadaic acid] | – | – | intensity of the GST-2E11 band versus the band of phosphorylated GST-2E11 (reference) (PP2A phosphatase): only slightly weaker |
| PP2A phosphatase in HTB-14 whole cell extracts | – | – | dephosphorylation of 32P-phosphorylated GST-2E11 (loss of the autoradiography band), with or without okadaic acid [1]: In the line loaded with GST-2E11 fusion proteins incubated in the presence of HTB-14 cell extracts, the band had an extremely weaker intensity |
| Protein Kinase A Catalytic Subunit (PKA from bovine heart, Sigma) | A band did still appear at a position corresponding to the size of GST-2E11, but the intensity of the band was very significantly lower | Thus the GST-2E11 protein is phosphorylated by GSK-3β and PKA in vitro | – |
| recombinant GSK-3β kinase (New England Biolabs) | A band did still appear at a position corresponding to the size of GST-2E11, but the intensity of the band was very significantly lower | Thus the GST-2E11 protein is phosphorylated by GSK-3β and PKA in vitro | – |
| GST-PPP2R2C radiolabeled recombinant protein (other, radiolabeled with [32P]-γATP by Protein Kinase A Catalytic Subunit, Used as the soluble probe in the solid phase overlay assay; also called PP2A/Bγ; pGEX-2TK-PPP2R2C; not shown: glutathione S-transferase encoded by the pGEX-2TK vector (Amersham Pharmacia Biotech)) MGEDTDTRKINHSFLRDHSYVTEADIISTVEFNHTGELLATGDKGGRVVIFQREPESKNAPHSQGDYDVYSTFQSHEPEFDYLKSLEIEEKINKIKWLPQQNAAHSLLSTNDKTIKLWKITERDKRPEGYNLKDEEGKLKDLSTVTSLQVPVLKPMDLMVEVSPRRIFANGHTYHINSISVNSDCETYMSADDLRINLWHLAITDRSFNIVDIKPANMEDLTEVITASEFHPHHCNLFVYSSSKGSLRLCDMPAAALCDKHSKLFEEPEDPSNRSFFSEIISSVSDVKFSHSDRYMLTRDYLTVKVWDLNMEARPIETYQVHDYLRSKLCSLYENDCIFDKFECAWNGSDSVIMTGAYNNFFRMFDRNTKRDVTLEASRESSKPRAVLKPRRVCVGGKRRRDDISVDSLDFTKKILHTAWHPAENIIAIAATNNLYIFQDKVNSDMH | – | – | binding result (GST recombinant protein): no binding (tested: 100 ng, 10 ng and 0.1 ng of GST loaded) |
